The values below come from a protein production outcome set (Wang et al. 2014).

A short description of the data set: label from the status in PepcDB records.
In the case of “MAADYTHFIHRQHAPPEVCLSAFSGHNDALDFPDSEGSPVSQSLIAALQNPALFPHPVEGFQVIETHISWVLLTGPFAYKVKKPVNFGFLDFTSLDAREHFCGEELRLNQRLTEDLYLEVLPITGSAEAPVLGGDGPAIEYVLKMRQFPQSQLLSTLQANSELTTAHIDEMARQIAHFHLNAPKVPAEHEAGTPESVMAPVRQNFEQIRPFLSDKADLQQLEALEAWAETSFERLKPLLAQRKSEGFIRECHGDIHLGNATLIDGKVVIFDCIEFNEPFRFTDVYADTGFLAMDLEDRGLKSLARRFISQYLELTGDYQGLELLNFYKAYRALVRAKVSLFSMPAEATPVQRATTLRQYRNYANLAESYSTIPSRFLAITSGISAVGKSRVAMRLVEALGAVRLRSDVERKRLFGEQQVPNDPHAGIYSSEASSATYARLHEIAETILRAGFPVVIDATYLKRAQRDAAAKVAEATGTPCLIIDCNAPEAVVASWLAQRQADQNDPSDATLEVIANQQATREALTDEELLRSKRIETNESGSLDALVANIRQRLPGLLEHHHHHH”, the protein production entry is “failed”. As for “MAAFPNLNSGSGLKKLDEHLLTRSYITGYQASKDDITVFTALSKPPTSEFVNVSRWFNHIDALLRISGVSAEGSGVIVEGSSPITEEAVATPPAADSKDTAAEEEDDDDVDLFGEETEEEKKAAEERAASVKASTKKKESGKSSVLMDIKPWDDETDMKKLEEAVRSIQMEGLFWGASKLVPVGYGIKKLHIMCTIVDDLVSIDTMIEEQLTVEPINEYVQSCDIVAFNKI”, the protein production result is listed as “failed”. As to “MAAGALPAREPGLLKPAVLWLLLLAPLFFSTYGFATWVTAQRDDVGSMVFDWERHMPFWAWTIVPYWSIDLLYGFSLLLPRSRDELKRHALRLLTAQVIAVSCFLLWPLSFTFSRPELDGVFGWLFAVLAGFDKPFNQAPSLHIALLVVLWVCYARHTQGFWRWLVHGWFALIGVSVLSTYQHHFIDVPTGALAGWLCVWLWPLDRPSPLFSARAAQDPKRRQLALRYGLGATLFAGAAFAWGGAALWLIWPAVALLLVALNYALLGAEGFQKRQDGSLSPAARWLLAPYLAAAWINSRLWTRKHPQPDPVVDNVWLGRLPTPAELKDSPFDAVLDLCAELSLDSRGLRAYQSLPVLDLCAPSAEQCLAAAHAIERLRQQGPLLVCCALGYSRSATAIAAWLLHSGRAATVDAAIVQIQRARPQIVLHPAHRQALQALSSAGRTAHVH”, the protein production result is “failed”. “MAAGPEPPEWEPRWRKALRGKENKGSVEIMRKDLNDARDLHGQAESAAAVWKGHVMDRRKKALTDYKKLRAFFVEEEEHFLQEAEKDEGASEDDELADPADRFRSLLQAVSELEKKHRNLGLSMLLQ”: the protein production entry was “not failed”.

Take “MAAKSLVDIAYESDSSSDSSDEGDVPCLPKDEVNERKLQNLQRKAFYNLLQTFAFENSTMSNKRTEIIGKLMNEWGIANETHISFADQIQKKLLTLKQTKHSGVKETQIPATPLTNTATPSTFFVPKPVKSWGSVNPESLIGKWVSIRLPDKAKFTEYIIKAYDAEKEMHSLLTETSNPMEVDCIDPFRWIDIRDISPNDIMWEGGQKPNFAAPNQSAAATGQ”: the protein production result is on record as “failed”. As for “MAALLGIVSPVTFTGKHPVNSRSRRRTVVKCSNERRILFNRIAPVYDNLNDLLSLGQHRIWKNMAVSWSGAKKGDYVLDLCCGSGDLAFLLSEKVGSTGKVMGLDFSSEQLAVAATRQSLKARSCYKCIEWIEGDAIDLPFDDCEFDAVTMGYGLRNVVDRLRAMKEMYRVLKPGSRVSILDFNKSNQSVTTFMQGWMIDNVVVPVATVYDLAKEYEYLKYSINGYLTGEELETLALEAGFSSACHYEISGGFMGNLVAMR”, the protein production entry is reported as “failed”.

For the sequence “MAALSGVFVWDEERIQEEELQRSINEMKRLEEMSNIFQSSGVENYPPEPKSPAGGNEKSKDKEEPWEMVMDKKHFKLWRRPITGTHLYQYRVFGTYTDVTPRQFFNVQLDTEYRKKWDALVIKLEVIERDAVSGSEVLHWVTHFPYPMYSRDYVYVRRYSVDQENNVMVLVSRAVEHPSVPESPEFVRVRSYESQMVIRPHKSFDENGFDYLLTYSDNPQTVFPRYCVSWMVSSGMPDFLEKLHMATLKAKNMEIKVKDYISAKPLEMSSEAKATAPSPERKNEGSCGPARIEYA”, the protein production result was “failed”. As for “MAARLLFRRSSQILRSIQRNPQISSSFESPPCPIFHSLTTASPDPSRLSSLTFLRSLSIARRGPTRPKKIDIGAKARQMQNRRLWTYALTFSCIAGFVVIVLNQFQDQLVFYLTPSDAMEKFAENPTKNKFRLGGLVLEGSVAQPAASQEMEFVITDLITDILVRYKGSLPDLFREGHSVVVEGFIKPYTDEVRKEVSTKPISKKARNLDCFFSATEVLAKHDEKYMPQEVAAAIEKNKKIIEAAATEQAAEVAAS”, the protein production result is reported as “failed”. As for “MAASPSTYAFNGESKETGNDSSKLSKAPATKGGKPHIIFIMSDQHRGDALHCMGNKAVISPNIDKLAQEGSLFVCGYSSAPSSTPARAGLLTGMSPWHHGMLGYGKVASKYKYEMPQMLRDLGYYTFGIGKMHWFPQKALHGFHATLVDESGRSETRDFISDYREWFQLQAPGKNPDLTGIGWNNHNAGTYKLEERLHPTAWTGQTACELIRNYDSDQPLFLKVSFARPHSPYDPPKRYLDMYEKVDIPVPFVGDWCGKYAERKDPERVSKDAAFANLGEEYAVNSRRHYYANVTFIDDQIGQIIQTLKEKGMYENAIICYTADHGDMLGDHYHWRKTYAYEGSAKIPYIIKWPSAMTTQAIRGKRIEQPVELRDFLPTFIELAGGTVPDDMDGKSLVALASGNKNGWRKYIDLEHATCYSADNYWCALTDGKMKYIWFIHTGEEQLFDLSSDPGEQKNLSGNSRYADRLVEMRKAMVDHLQERGTEFVKDGKLAVRDQTLLYSPNYPKD”, the protein production result is recorded as “failed”. In the case of “MAASSQAPEAKGFRWKLIAPLVVWLAIYLWPVPSGLNVNQWHYFAVFAAVITGLILESMPVGAVGLIGLTVAGVGGYIDPDPTKSLRWMLAGFAESTVWLIVGAFVFSIGYRKSQLGRRIALVLVQKLGSNTLGLGYAVAMSDFLLAPATPSNTARSGGIVYPIISNIPRIYGSEPGPTAGRIGTYVMWTAFAATAVTSSLFFTALAPNAAALAIAKKTVGVEVSWGQWFIGFAPLGILLMILVPLLSYPVCRPEVKRSPEIAEWAAKELSEMGPMSRNEWIMLALIVLAMFLWIAGSSPDINVPLLGSNFVNATTVVFIVISLMLVTGVIEFADIVSEKSAWEVFFYFTSLLTLASGLNEIGFIKWFATEYAKPLAGLSPSTAMILLVALFFWIHYFFSSITSHAAAVLPVVLAVGSGIPGLPVTTLAMLCMYSLGLMGVISPYATGPAPMYFGSGYIGKGQFWGFGLIFGLLYFAGLLLIVLPWLQVR” it was “failed”. “MAASTSSSSSSSSSSLSSPSPCTWRYMTFTSFHGPDVRNTFLSHLRKQFNTNGITMFDDQRMERSQTLAPTLTQAIRESKIYIVLLSKNYASSSWCLDELLEILNCKEKRGQRVMTIFYGVNPSDVRKQTGEFGIAFNETCARKTEEERRKWSHALTCVGNITGVHVQDRDDEANMIEKIATDVSEKLNATESKDFDEMVGIKAHLTKIESLLSLDYDKVKIVGISGPAGIGKSTIARALHNLLSSSFHLSCFMENLISQSNPHSSLEYSSKLSLQEQLLSQVLNEKDIRIRHLGAIQERLHDQRVLIILDDVTSLEQLEVLANIKWYGPGSRIIVITKKKDILVQHGICDIYHVGFPTDADALKIFCLSAYRQTSPPDGSMKIHECEMFIKICGNLPLHLHVLGSALRGRSYGRVQSLCNLVSLADFV”: the protein production result was “failed”. Turning to “MAAVWQQVLAVDARYNAYRTPTFPQFRTQYIRRRSQLLRENAKAGHPPALRRQYLRLRGQLLGQRYGPLSEPGSARAYSNSIVRSSRTTLDRMEDFEDDPRALGARGHRRSVSRGSYQLQAQMNRAVYEDRPPGSVVPTSAAEASRAMAGDTSLSENYAFAGMYHVFDQHVDEAVPRVRFANDDRHRLACCSLDGSISLCQLVPAPPTVLRVLRGHTRGVSDFAWSLSNDILVSTSLDATMRIWASEDGRCIREIPDPDSAELLCCTFQPVNNNLTVVGNAKHNVHVMNISTGKKVKGGSSKLTGRVLALSFDAPGRLLWAGDDRGSVFSFLFDMATGKLTKAKRLVVHEGSPVTSISARSWVSREARDPSLLINACLNKLLLYRVVDNEGTLQLKRSFPIEQSSHPVRSIFCPLMSFRQGACVVTGSEDMCVHFFDVERAAKAAVNKLQGHSAPVLDVSFNCDESLLASSDASGMVIVWRREQK”, the protein production entry was “failed”. Turning to “MAAWCSPRWLRVAVGTPRLPAAAGRGVQQPQGGVVAASLCRKLCVSAFGLSMGAHGPRALLTLRPGVRLTGTKSFPFVCTASFHTSASLAKDDYYQILGVPRNASQKDIKKAYYQLAKKYHPDTNKDDPKAKEKFSQLAEAYEVLSDEVKRKQYDAYGSAGFDPGASSSGQGYWRGGPSVDPEELFRKIFGEFSSSPFGDFQNVFDQPQEYIMELTFNQAAKGVNKEFTVNIMDTCERCDGKGNEPGTKVQHCHYCSGSGMETINTGPFVMRSTCRRCGGRGSIITNPCVVCRGAGQAKQKKRVTVPVPAGVEDGQTVRMPVGKREIFVTFRVQKSPVFRRDGADIHSDLFISIAQAILGGTAKAQGLYETINVTIPAGIQTDQKIRLTGKGIPRINSYGYGDHYIHIKIRVPKRLSSRQQNLILSYAEDETDVEGTVNGVTHTSTGGRTMDSSTGSKDRREAGEDNEGFLSKLKKIFTS”, the protein production entry is on record as “failed”. As to “MAAWRAEARRLAQAGVPAESVVWRVGAGEADLFADLPALPAGPARQIRLSREAVGSLETALCHADPERFGRAYGLLLRLADGTLRWGDRSDPALRKLLAQEKMVRREIHKMHAFVRFRELPSEGPRRAFAAWFEPDHPVEEAATPFFARRFGDMDWAIVTPEVTARFVAGQLDFALTEERTAPPADGTEELWRTYYANIFNPARLMVKAMQSEMPKRYWKNLPEAELIPGLIRGAAERAAEMQAAAPTEPPARTAAVARQRAAAAGGPAAAGDGSAPGTLAEAKTAAEGCRRCGLWANATQVVFGEGPATARMMIVGEQPGDREDLAGRPFVGPAGQLFDEEAAAAGLDRGSVYVTNAVKHFKFAPRGKRRIHQKPDAGEVTACRWWLDLERDLVRPRLIVAMGATALASLTGSGAGILKRRGSVERLDDGTPVFVTVHPSYILRLPDEAARVEERRRFRDDLQAARQLLERLD”, the protein production result is on record as “failed”.

Regarding “MAAYQVLIVGAGFSGAETAFWLAQKGVRVGLLTQSLDAVMMPFLPPKPPFPPGSLLERAYDPKDERVWAFHARAKYLLEGLRPLHLFQATATGLLLEGNRVVGVRTWEGPPARGEKVVLAVGSFLGARLFLGGVVEEAGRLSEASYPDLLEDLSRLGFRFVEREGEVPETPSTPGYRVRYLAFHPEEWEEKTFRLKRLEGLYAVGLCVREGDYARMSEEGKRLAEHLLHELG”, the protein production entry is given as “not failed”. As for “MACARAWRTMSPCGGKQVHPLQECGLCSAPAGVARTHARQGADPMLPELGTFLLVLALLVALVQAVVPLAGAQRGRSSWMAVARPAAMVQLALIASAFAVLTHAFLVQDFSVRYVAENSNSLLPMMYRYSAVWGAHEGSLLLWTLVLALWTGAVAIWSRQLPAHVIARVLGVMALVSIGFLAFLLFTSNPFARLFPVPLEGGDLNPLLQDPGLIVHPPMLYCGYVGFAVPFAFAIAALLEGRMDARWLRWTRPWTNVAWSMLTVGIALGSWWAYYELGWGGWWFWDPVENASFMPWLVGTALLHSQAVTEKRGSFASWTLLLAIAAFALSLLGTFLVRSGVLTSVHSFAADPSRGLFILVFLLLVVGGSLVLYALRAPRLSLVDDPRRAFAGSSRETLLLLNNLLLTCACAMVLLGTLYPLLADALGLGKLSVGPPYFGTLFVVLMAPLVALVPFGPLTRWQREQASRPLAMLAPWAGLALAAGVLAWFAAPQGQLKAAVGVAGAAWVLLGTARFLWTRRAAKGRKFTPEMLGMVLAHLGVAVFLSGALLVEGLSLQREVALAPGQQVQIGRYALHFDGLEELRGPNYVSDRANLQVLKDDAPVGVVHAEKRRYASGGQTLTEAAIRPGPFGDLYVALGEPLGNQAWAVRVHLKPFVRWIWLGALLMALGGLVTAADRRFRRSPEIQDG”, the protein production entry is “failed”.

For the sequence “MACEGAPEVRIGRKPVMNYVLAILTTLMEQGTNQVVVKARGRNINRAVDAVEIVRKRFAKNIEIKDIKIDSQEIEVQTPEGQTRTRRVSSIEICLEKAGESA”, the protein production result is “not failed”.
